Reference: the supplement of paper PMC5998384

Assays:
[1] = tested on: HeLa Kyoto; experiment: solubility in G1/S (NP-40 vs SDS abundance) (log2 ratio); higher = more soluble; conditions: cell cycle stage: G1/S
[2] = tested on: HeLa Kyoto; experiment: melting temperature (median over replicates), in situ; higher = more thermally stable
[3] = tested on: HeLa Kyoto; experiment: solubility change mitosis vs G1/S (difference of NP-40 vs SDS log2 ratios) (log2 ratio difference); higher = more soluble in mitosis
[4] = tested on: HeLa Kyoto; experiment: thermal stability score vs G1/S (z-score of summed log2 fold changes over temperatures); higher = more thermally stable than in G1/S
[5] = cell cycle stage: early G1 (4.5 h after nocodazole release)
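Wherever melting temperature (median over replicates), in situ is given: HeLa Kyoto cells synchronized by double thymidine or nocodazole block, proteins quantified by TMT10plex mass spectrometry, three independent biological replicates.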
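Wherever solubility change mitosis vs G1/S (difference of NP-40 vs SDS log2 ratios) is given: synchronized HeLa Kyoto cells (double thymidine block for G1/S, nocodazole release for mitosis), protein amounts in NP-40 versus SDS lysates quantified by mass spectrometry, three biological replicates.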
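Wherever solubility in G1/S (NP-40 vs SDS abundance) is given: HeLa Kyoto cells arrested at G1/S by double thymidine block, proteins quantified by TMT10plex mass spectrometry in mild NP-40 versus SDS extracts, three biological replicates.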
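Wherever thermal stability score vs G1/S (z-score of summed log2 fold changes over temperatures) is given: synchronized HeLa Kyoto cells, proteins quantified by TMT10plex mass spectrometry, three biological replicates, mitosis taken 0.5 h after nocodazole release, G1/S directly after double thymidine block.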

Sequence: MTSRFGKTYSRKGGNGSSKFDEVFSNKRTTLSTKWGETTFMAKLGQKRPNFKPDIQEIPKKPKVEEESTGDPFGFDSDDESLPVSSKNLAQVKCSSYSESSEAAQLEEVTSVLEANSKISHVVVEDTVVSDKCFPLEDTLLGKEKSTNRIVEDDASISSCNKLITSDKVENFHEEHEKNSHHIHKNADDSTKKPNAETTVASEIKETNDTWNSQFGKRPESPSEISPIKGSVRTGLFEWDNDFEDIRSEDCILSLDSDPLLEMKDDDFKNRLENLNEAIEEDIVQSVLRPTNCRTYCRANKTKSSQGASNFDKLMDGTSQALAKANSESSKDGLNQAKKGGVSCGTSFRGTVGRTRDYTVLHPSCLSVCNVTIQDTMERSMDEFTASTPADLGEAGRLRKKADIATSKTTTRFRPSNTKSKKDVKLEFFGFEDHETGGDEGGSGSSNYKIKYFGFDDLSESEDDEDDDCQVERKTSKKRTKTAPSPSLQPPPESNDNSQDSQSGTNNAENLDFTEDLPGVPESVKKPINKQGDKSKENTRKIFSGPKRSPTKAVYNARHWNHPDSEELPGPPVVKPQSVTVRLSSKEPNQKDDGVFKAPAPPSKVIKTVTIPTQPYQDIVTALKCRREDKELYTVVQHVKHFNDVVEFGENQEFTDDIEYLLSGLKSTQPLNTRCLSVISLATKCAMPSFRMHLRAHGMVAMVFKTLDDSQHHQNLSLCTAALMYILSRDRLNMDLDRASLDLMIRLLELEQDASSAKLLNEKDMNKIKEKIRRLCETVHNKHLDLENITTGHLAMETLLSLTSKRAGDWFKEELRLLGGLDHIVDKVKECVDHLSRDEDEEKLVASLWGAERCLRVLESVTVHNPENQSYLIAYKDSQLIVSSAKALQHCEELIQQYNRAEDSICLADSKPLPHQNVTNHVGKAVEDCMRAIIGVLLNLTNDNEWGSTKTGEQDGLIGTALNCVLQVPKYLPQEQRFDIRVLGLGLLINLVEYSARNRHCLVNMETSCSFDSSICSGEGDDSLRIGGQVHAVQALVQLFLERERAAQLAESKTDELIKDAPTTQHDKSGEWQETSGEIQWVSTEKTDGTEEKHKKEEEDEELDLNKALQHAGKHMEDCIVASYTALLLGCLCQESPINVTTVREYLPEGDFSIMTEMLKKFLSFMNLTCAVGTTGQKSISRVIEYLEHC [WAPL]
- solubility in G1/S (log2) [1]: -0.00224
- melting temperature ([2]; cell cycle stage: G1/S): 48.1 °C
- melting temperature ([2]; cell cycle stage: mitosis): 49.9 °C
- solubility change mitosis (log2) [3]: -0.133
- thermal stability score [4, 5]: 0.873
- thermal stability score ([4]; cell cycle stage: mitosis): 2.77

Sequence: MTSSRLWFSLLLAAAFAGRATALWPWPQNFQTSDQRYVLYPNNFQFQYDVSSAAQPGCSVLDEAFQRYRDLLFGSGSWPRPYLTGKRHTLEKNVLVVSVVTPGCNQLPTLESVENYTLTINDDQCLLLSETVWGALRGLETFSQLVWKSAEGTFFINKTEIEDFPRFPHRGLLLDTSRHYLPLSSILDTLDVMAYNKLNVFHWHLVDDPSFPYESFTFPELMRKGSYNPVTHIYTAQDVKEVIEYARLRGIRVLAEFDTPGHTLSWGPGIPGLLTPCYSGSEPSGTFGPVNPSLNNTYEFMSTFFLEVSSVFPDFYLHLGGDEVDFTCWKSNPEIQDFMRKKGFGEDFKQLESFYIQTLLDIVSSYGKGYVVWQEVFDNKVKIQPDTIIQVWREDIPVNYMKELELVTKAGFRALLSAPWYLNRISYGPDWKDFYIVEPLAFEGTPEQKALVIGGEACMWGEYVDNTNLVPRLWPRAGAVAERLWSNKLTSDLTFAYERLSHFRCELLRRGVQAQPLNVGFCEQEFEQT [HEXA]
- solubility in G1/S (log2) [1]: 0.295
- melting temperature ([2]; cell cycle stage: G1/S): 56.7 °C
- melting temperature ([2]; cell cycle stage: mitosis): 56.1 °C
- solubility change mitosis (log2) [3]: -0.164
- thermal stability score [4, 5]: 0.922
- thermal stability score ([4]; cell cycle stage: mitosis): 0.624

Sequence: MTTETGPDSEVKKAQEEAPQQPEAAAAVTTPVTPAGHGHPEANSNEKHPSQQDTRPAEQSLDMEEKDYSEADGLSERTTPSKAQKSPQKIAKKYKSAICRVTLLDASEYECEVEKHGRGQVLFDLVCEHLNLLEKDYFGLTFCDADSQKNWLDPSKEIKKQIRSSPWNFAFTVKFYPPDPAQLTEDITRYYLCLQLRADIITGRLPCSFVTHALLGSYAVQAELGDYDAEEHVGNYVSELRFAPNQTRELEERIMELHKTYRGMTPGEAEIHFLENAKKLSMYGVDLHHAKDSEGIDIMLGVCANGLLIYRDRLRINRFAWPKILKISYKRSNFYIKIRPGEYEQFESTIGFKLPNHRSAKRLWKVCIEHHTFFRLVSPEPPPKGFLVMGSKFRYSGRTQAQTRQASALIDRPAPFFERSSSKRYTMSRSLDGAEFSRPASVSENHDAGPDGDKRDEDGESGGQRSEAEEGEVRTPTKIKELKPEQETTPRHKQEFLDKPEDVLLKHQASINELKRTLKEPNSKLIHRDRDWERERRLPSSPASPSPKGTPEKANERAGLREGSEEKVKPPRPRAPESDTGDEDQDQERDTVFLKDNHLAIERKCSSITVSSTSSLEAEVDFTVIGDYHGSAFEDFSRSLPELDRDKSDSDTEGLLFSRDLNKGAPSQDDESGGIEDSPDRGACSTPDMPQFEPVKTETMTVSSLAIRKKIEPEAVLQTRVSAMDNTQQVDGSASVGREFIATTPSITTETISTTMENSLKSGKGAAAMIPGPQTVATEIRSLSPIIGKDVLTSTYGATAETLSTSTTTHVTKTVKGGFSETRIEKRIIITGDEDVDQDQALALAIKEAKLQHPDMLVTKAVVYRETDPSPEERDKKPQES [EPB41L1]
- solubility in G1/S (log2) [1]: -0.0349
- melting temperature ([2]; cell cycle stage: G1/S): 49.6 °C
- melting temperature ([2]; cell cycle stage: mitosis): 50 °C
- solubility change mitosis (log2) [3]: -0.0516
- thermal stability score [4, 5]: 0.332
- thermal stability score ([4]; cell cycle stage: mitosis): 0.235

Sequence: MTTPALLPLSGRRIPPLNLGPPSFPHHRATLRLSEKFILLLILSAFITLCFGAFFFLPDSSKHKRFDLGLEDVLIPHVDAGKGAKNPGVFLIHGPDEHRHREEEERLRNKIRADHEKALEEAKEKLRKSREEIRAEIQTEKNKVVQEMKIKENKPLPPVPIPNLVGIRGGDPEDNDIREKREKIKEMMKHAWDNYRTYGWGHNELRPIARKGHSPNIFGSSQMGATIVDALDTLYIMGLHDEFLDGQRWIEDNLDFSVNSEVSVFEVNIRFIGGLLAAYYLSGEEIFKIKAVQLAEKLLPAFNTPTGIPWAMVNLKSGVGRNWGWASAGSSILAEFGTLHMEFIHLSYLTGDLTYYKKVMHIRKLLQKMDRPNGLYPNYLNPRTGRWGQYHTSVGGLGDSFYEYLLKAWLMSDKTDHEARKMYDDAIEAIEKHLIKKSRGGLTFIGEWKNGHLEKKMGHLACFAGGMFALGADGSRADKAGHYLELGAEIARTCHESYDRTALKLGPESFKFDGAVEAVAVRQAEKYYILRPEVIETYWYLWRFTHDPRYRQWGWEAALAIEKYCRVNGGFSGVKDVYSSTPTHDDVQQSFFLAETLKYLYLLFSGDDLLPLDHWVFNTEAHPLPVLHLANTTLSGNPAVR [MAN1A2]
- solubility in G1/S (log2) [1]: -0.0642
- melting temperature ([2]; cell cycle stage: G1/S): 54.1 °C
- melting temperature ([2]; cell cycle stage: mitosis): 54.3 °C
- solubility change mitosis (log2) [3]: -0.0976
- thermal stability score [4, 5]: -0.726
- thermal stability score ([4]; cell cycle stage: mitosis): -1.7

Sequence: MTTYLEFIQQNEERDGVRFSWNVWPSSRLEATRMVVPVAALFTPLKERPDLPPIQYEPVLCSRTTCRAVLNPLCQVDYRAKLWACNFCYQRNQFPPSYAGISELNQPAELLPQFSSIEYVVLRGPQMPLIFLYVVDTCMEDEDLQALKESMQMSLSLLPPTALVGLITFGRMVQVHELGCEGISKSYVFRGTKDLSAKQLQEMLGLSKVPLTQATRGPQVQQPPPSNRFLQPVQKIDMNLTDLLGELQRDPWPVPQGKRPLRSSGVALSIAVGLLECTFPNTGARIMMFIGGPATQGPGMVVGDELKTPIRSWHDIDKDNAKYVKKGTKHFEALANRAATTGHVIDIYACALDQTGLLEMKCCPNLTGGYMVMGDSFNTSLFKQTFQRVFTKDMHGQFKMGFGGTLEIKTSREIKISGAIGPCVSLNSKGPCVSENEIGTGGTCQWKICGLSPTTTLAIYFEVVNQHNAPIPQGGRGAIQFVTQYQHSSGQRRIRVTTIARNWADAQTQIQNIAASFDQEAAAILMARLAIYRAETEEGPDVLRWLDRQLIRLCQKFGEYHKDDPSSFRFSETFSLYPQFMFHLRRSSFLQVFNNSPDESSYYRHHFMRQDLTQSLIMIQPILYAYSFSGPPEPVLLDSSSILADRILLMDTFFQILIYHGETIAQWRKSGYQDMPEYENFRHLLQAPVDDAQEILHSRFPMPRYIDTEHGGSQARFLLSKVNPSQTHNNMYAWGQESGAPILTDDVSLQVFMDHLKKLAVSSAA [SEC23A]
- solubility in G1/S (log2) [1]: -0.0681
- melting temperature ([2]; cell cycle stage: G1/S): 50 °C
- melting temperature ([2]; cell cycle stage: mitosis): 50.2 °C
- solubility change mitosis (log2) [3]: -0.0745
- thermal stability score [4, 5]: -0.157
- thermal stability score ([4]; cell cycle stage: mitosis): 0.129
